Molecular target: mannose receptor (UniProt Q61830)
Assay: cell-based or functional assay

Sequence of mannose receptor (Q61830 20-1456 limits assumed): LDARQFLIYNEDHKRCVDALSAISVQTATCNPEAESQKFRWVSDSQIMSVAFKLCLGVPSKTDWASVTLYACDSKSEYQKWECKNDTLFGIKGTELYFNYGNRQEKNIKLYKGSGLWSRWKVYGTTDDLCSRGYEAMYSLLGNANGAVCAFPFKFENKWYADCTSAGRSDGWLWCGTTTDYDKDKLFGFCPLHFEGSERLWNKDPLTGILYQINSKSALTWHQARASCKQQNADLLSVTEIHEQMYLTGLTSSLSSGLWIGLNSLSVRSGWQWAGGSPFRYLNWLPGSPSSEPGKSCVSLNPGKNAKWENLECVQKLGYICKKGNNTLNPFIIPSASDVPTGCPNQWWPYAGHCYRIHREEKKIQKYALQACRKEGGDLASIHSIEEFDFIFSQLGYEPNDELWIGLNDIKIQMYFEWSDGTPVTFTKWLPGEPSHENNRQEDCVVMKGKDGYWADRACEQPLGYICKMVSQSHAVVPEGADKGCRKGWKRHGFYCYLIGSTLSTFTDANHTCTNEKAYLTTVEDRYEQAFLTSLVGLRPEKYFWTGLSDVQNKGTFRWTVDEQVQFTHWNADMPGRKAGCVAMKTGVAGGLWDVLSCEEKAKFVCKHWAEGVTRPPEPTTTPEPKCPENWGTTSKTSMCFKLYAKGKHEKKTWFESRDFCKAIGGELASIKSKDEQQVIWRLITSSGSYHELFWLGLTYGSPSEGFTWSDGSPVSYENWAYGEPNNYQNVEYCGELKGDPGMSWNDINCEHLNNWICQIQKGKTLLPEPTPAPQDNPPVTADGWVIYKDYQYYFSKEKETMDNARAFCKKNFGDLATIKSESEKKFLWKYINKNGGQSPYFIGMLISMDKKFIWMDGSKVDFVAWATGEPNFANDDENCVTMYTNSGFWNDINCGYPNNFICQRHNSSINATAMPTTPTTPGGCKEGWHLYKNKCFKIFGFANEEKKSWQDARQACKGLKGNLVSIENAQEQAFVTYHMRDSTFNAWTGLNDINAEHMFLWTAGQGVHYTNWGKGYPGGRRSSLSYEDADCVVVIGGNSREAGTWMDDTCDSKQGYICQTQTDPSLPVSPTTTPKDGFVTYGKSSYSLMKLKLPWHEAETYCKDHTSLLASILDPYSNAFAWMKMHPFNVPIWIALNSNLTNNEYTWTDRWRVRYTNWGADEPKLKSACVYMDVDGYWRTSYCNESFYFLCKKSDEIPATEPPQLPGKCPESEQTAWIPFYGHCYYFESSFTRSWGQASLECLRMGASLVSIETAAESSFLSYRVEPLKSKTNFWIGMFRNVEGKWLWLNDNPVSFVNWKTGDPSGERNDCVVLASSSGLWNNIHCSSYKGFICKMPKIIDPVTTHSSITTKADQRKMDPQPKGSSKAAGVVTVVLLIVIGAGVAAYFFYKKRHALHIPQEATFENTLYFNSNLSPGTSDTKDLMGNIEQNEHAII

GCase uptake (net GCase activity) blocked by mannan in J774E macrophages or Gba1-/- neurons: 20%
Substance: SapC-DOPS-GCase nanovesicles

Source: US20230103407A1
